Results on twelve molecules are retold here after patent publication US20120034672A1, “[…] LUCIFERASE VARIANT WITH PROLONGED BIOLUMINESCENCE” (priority 2009, published 2012).

Numbering of substitutions follows the chain as printed. Names and notes keep the numbering of the source. “Also recorded” adds a separate entry of the source.

Data set [1] is described as follows: Luminescence activities of MpLuc1 and its variants. Format: cell-based. Conditions: for luminescence stability compared with MpLuc1: microplate reader. As for the experimental part:
These variants were individually introduced in equal amounts into living cells, and their relative luminescence intensities were measured.

Data set [2] is described as follows: Luminescence activities of MLuc and its variants. To be noted: for luminescence stability of MLuc variants: measured every 0.5 seconds. Format: cell-based. As for the experimental part: These variants were individually introduced in equal amounts into living cells, and their relative luminescence spectra were measured. […] In order to examine the luminescence stability of the variants produced in the present invention, temporal changes in the luminescence intensity after the introduction of the substrate were measured every 0.5 seconds (FIG. 15B). […] Further, in order to examine the long-wavelength luminescence intensities of the variants, the luminescence intensities of the variants were measured using a 610 nm long-pass filter. […] Results similar to the above tendency were obtained from the measurement of the luminescence intensities before and after the introduction of the substrate (FIG. 15D).

Data set [3] can be described thus: Area of luminescence spectrum of GLuc variants (20-minute lysis, luminescence plate reader). Format: biochemical. Conditions: for bioluminescence intensity higher than GLuc (area ratio): plate reader; for bioluminescence intensity (area of spectrum), in words: versus original GLuc. The protocol:
In this case, a protocol for immersing the lysate samples in lysis solution for 20 minutes was employed (uniformed cell lysates even whose organelles are lysed). The area of the luminescence spectrum measured by a luminescence plate reader was used as the index of the luminescence intensity.

Data set [4] relates to BALE/c nude mice. As to the kind of experiment: In vivo imaging of transplanted COS-7 cells expressing GLuc or 8990. To be noted: subcutaneous COS-7 cells, coelenterazine injected; listed as 8990. As for the experimental part:
Subsequently, both of these transformed cells were transplanted into subcutaneous tissues of the back on the left and right sides of BALE/c nude mice (5-week-old female). After waiting 12 hours to allow stabilization of the transplanted cells, an equal amount of substrate (coelenterazine) was injected. Subsequently, the developed bioluminescence intensities were compared (FIG. 16A).

Data set [5] in a line: Temporal changes in bioluminescence intensity after substrate introduction (stability). To be noted: for bioluminescence stability and strength: substrate in modified Matthew's buffer; for bioluminescence stability, short time: 5 seconds; for bioluminescence stability, short time / bioluminescence stability, long time: substrate in PBS buffer; for bioluminescence stability, long time: 10 minutes.
Protocol: First, a gene encoding each GLuc variant was cloned into pcDNA 3.1(+), and the same amount of plasmid was introduced into COS-7 cells. The cells were collected 16 hours after the introduction, lysed in cell lysate, and then transferred to a microplate reader. PBS buffer in which coelenterazine is dissolved was set to a substrate injector of the plate reader. At the measurement, after the substrate was automatically injected into each well, changes in the luminescence intensities were measured every 0.05 seconds.
Note that the composition of the modified Matthew's buffer contains the following components: • 100 mM potassium phosphate, 500 mM sodium chloride, 1 mM ethylenediaminetetraacetic acid (EDTA), 0.15 mg/ml porcine gelatin, pH 5.0, 1% Nonyiphenol ethoxylates (Tergitol NP-9) and 1% Antifoam, 25 mM thiourea, and 0.1% DMSO.

Data set [6] is described as follows: Luminescence spectrum of GLuc variants in COS-7 cell lysates (5-minute lysis, spectrophotometer). Format: biochemical. Conditions: for luminescence intensity higher than GLuc (peak of luminescence spectrum): COS-7 lysate, coelenterazine; for luminance (peak of luminescence spectrum), in words: versus original GLuc. The protocol:
Subsequently, cell lysates were prepared from the COS-7 cells in each well (5-minute lysis), and a spectrum was measured in the presence of a luciferase-specific substrate (coelenterazine), using a fluorescence spectrophotometer (F-7000, Hitachi), thereby examining the effect of the introduced mutation. FIGS. 4B-1 and 4C show the results.
Additionally, in the preparation of cell samples, the samples are immersed in a lysis solution for 5 minutes. This allows preparation of non-uniform samples of cells whose organelles are not lysed, by a quick process.

B1: MpLuc4: Y113W/I114L/H119E/Y121W variant of MpLuc1 (protein)
chain: MMEIQVLFALICFALVQANPTENKDDIDIVGVEGKFGTTDLETDLFTIVEDMNVISRDTNLANSDADRGKMPGKKLPLEVLIEMEANARKAGCTRGCLICLSKIKCTAKMKVWLPGRCEDWGGDKKTGQAGIVGAIVDIPEISGFKELGPMEQFIAQVDLCADCTTGCLKGLANVKCSALLKKWLPDRCASFADKIQSEVDNIKGLAGDR
modifications: MpLuc1 mutant (Y113W/I114L/H119E/Y121W); MpLuc4
notes: Y113W/I114L/H119E/Y121W variant of MpLuc1
Turning to B1, the “initial luminescence intensity sustained” value in data set [1] (10 seconds after introduction of substrate) is 60%. The “luminescence stability compared with MpLuc1” value in data set [1] is on record as “more stable bioluminescences”.

B2: MLuc4: Y122W/I123L/H128E/Y130W variant of MLuc (protein)
chain: MDIKVVFTLVFSALVQAKSTEFDPNIDIVGLEGKFGITNLETDLFTIWETMEVMIKADIADTDRASNFVATETDANRGKMPGKKLPLAVIMEMEANAFKAGCTRGCLICLSKIKCTAKMKVWLPGRCEDWGGDKKTGQAGIVGAIVDIPEISGFKEMAPMEQFIAQVDRCASCTTGCLKGLANVKCSELLKKWLPDRCASFADKIQKEVHNIKGMAGDR
modifications: MLuc mutant (Y122W/I123L/H128E/Y130W); MLuc4
notes: Y122W/I123L/H128E/Y130W variant of MLuc
Consider B2, for which the “luminescence stability of MLuc variants” value in data set [2] is recorded as “most stable bioluminescence”; in data set [2] (listed as Mluc4) it was “more stable bioluminescence”.

B3: I123L: MLuc with I123L mutation introduced; corresponds to I90 of GLuc (protein)
chain: B2 chain with W122Y, E128H, W130Y
modifications: MLuc mutant (I123L)
Consider B3, for which, in data set [2] (610 nm long-pass filter), the long-wavelength luminescence intensity result is listed as “strong bioluminescence in the red wavelength”. The “luminescence intensity compared to original MLuc” value in data set [2] (luminescence spectrum) is “increased”.

B4: F89W/I90L: GLuc with isoleucine 90 replaced with leucine and phenylalanine 89 with tryptophan (protein)
chain: MGVKVLFALICIAVAEAKPTENNEDFNIVAVASNFATTDLDADRGKLPGKKLPLEVLKEMEANARKAGCTRGCLICLSHIKCTPKMKKWLPGRCHTYEGDKESAQGGIGEAIVDIPEIPGFKDLEPMEQFIAQVDLCVDCTTGCLKGLANVQCSDLLKKWLPQRCATFASKIQGQVDKIKGAGGDKDEL
modifications: GLuc mutant (F89W/I90L); named 8990
As for B4, in data set [3], the “bioluminescence intensity higher than GLuc (area ratio)” value is 10.2 times and the “bioluminescence intensity (area of spectrum), in words” value (shortened to “bioluminescence intensity … in words”) is given as “particularly high bioluminescence intensity”. The “bioluminescence at transplantation site versus GLuc” value in data set [4] is reported as “stronger bioluminescence”. In addition, the “bioluminescence stability and strength” value in data set [5] is “very stable and strong bioluminescence”.

B5: H95E: GLuc variant, histidine at position 95 replaced with glutamic acid (protein)
chain: B4 chain with W89F, L90I, H95E
modifications: GLuc mutant (H95E)
As for B5, in data set [3], the “bioluminescence intensity higher than GLuc (area ratio)” value was determined as 3.0 times and the “bioluminescence intensity … in words” value is “particularly high bioluminescence intensity”.

B6: Y97W: GLuc variant in which tyrosine (Y) at position 97 was mutated to tryptophan (W) (protein)
chain: B4 chain with W89F, L90I, Y97W
modifications: GLuc mutant (Y97W)
As to B6, in data set [3], the “bioluminescence intensity higher than GLuc (area ratio)” value is on record as 2.1 times and the “bioluminescence intensity … in words” value is “particularly high bioluminescence intensity”. Besides, in data set [5], the “bioluminescence stability, short time” value was “stable luminescence intensities; also recorded: relatively stable bioluminescences”.

B7: I90L/I115L: GLuc with isoleucine at positions 90 and 115 replaced with leucine (protein)
chain: B4 chain with W89F, I115L
modifications: GLuc mutant (I90L/I115L)
B7: in data set [3], the “bioluminescence intensity higher than GLuc (area ratio)” value came out at 4.9 times and the “bioluminescence intensity … in words” value is given as “particularly high bioluminescence intensity”. Also, the “bioluminescence stability and strength” value in data set [5] was “very stable and strong bioluminescence”.

B8: F89W: GLuc variant, F at position 89 replaced with W (protein)
chain: B4 chain with L90I
modifications: GLuc mutant (F89W)
In the case of B8, in data set [6], the “luminescence intensity higher than GLuc (peak of luminescence spectrum)” value turned out to be 9 times and the “luminance (peak of luminescence spectrum), in words” value (shortened to “luminance”) is recorded as “particularly high luminance”. In data set [5], the “bioluminescence stability, short time” value is recorded as “relatively unstable luminescence intensity” and the “bioluminescence stability, long time” value is “relatively unstable”. Moreover, in data set [5] (within 10 minutes after introduction of substrate), the “decrease of bioluminescence intensity” value is listed as “about 60%”.

B9: I118V: GLuc variant, position 118 replaced with valine (protein)
chain: B4 chain with W89F, L90I, D100N, I118V
modifications: GLuc mutant (I118V)
On to B9, for which, in data set [6], the “luminance” value is given as “particularly high luminance”.

B10: I108V: GLuc variant, position 108 replaced with valine (protein)
chain: B4 chain with W89F, L90I, D100N, I108V
modifications: GLuc mutant (I108V)
For the molecule B10, in data set [6], the “luminescence intensity higher than GLuc (peak of luminescence spectrum)” value is on record as 6.7 times and the “luminance” value is listed as “particularly high luminance”.

B11: I90V: GLuc variant, isoleucine at position 90 mutated to valine (protein)
chain: B4 chain with W89F, L90V, D100N
modifications: GLuc mutant (I90V)
For the molecule B11, the “luminance” value in data set [6] is on record as “particularly high luminance”. Besides, in data set [5], the “bioluminescence stability, long time” value is reported as “relatively stable”.

B12: I114L: MpLuc1 with a mutation introduced into I114; corresponds to I90 of GLuc (protein)
chain: MMEIQVLFALICFALVQANPTENKDDIDIVGVEGKFGTTDLETDLFTIVEDMNVISRDTNLANSDADRGKMPGKKLPLEVLIEMEANARKAGCTRGCLICLSKIKCTAKMKVYLPGRCHDYGGDKKTGQAGIVGAIVDIPEISGFKELGPMEQFIAQVDLCADCTTGCLKGLANVKCSALLKKWLPDRCASFADKIQSEVDNIKGLAGDRKDEL
modifications: MpLuc1 mutant (I114L)
Take B12: in data set [1] (luminescence spectrum), the “luminescence intensity compared to original MpLuc1” value is “higher luminescence intensity”. For the same molecule, in data set [1], the “luminescence stability compared with MpLuc1” value is listed as “more stable bioluminescences”.
